Assay results taken from US20210395381A1.
Residue numbers refer to the chain shown, from its start.

B1: Clone 8.17 (VNAR)
VNAR: ARVDQTPQTITKETGESLTINCVLRDSNCALPSTYWYRKKSGSTNEESISKGGRYVETVNSGSKSFSLRINDLTVEDSGTYRCKVIAYRKSIVRGCNYRKHDVYGDGTAVTVNA
B2: Clone 8.97 (VNAR)
VNAR: B1 VNAR with Y88Q, R89L, K90S, V93L, R99N, K100I, H101D
B3: Clone 8.137 (VNAR)
VNAR: B1 VNAR with Y88Q, R89L, K90S, V93L, R99F, K100G, H101K

These binders were tested against recombinant mouse TfR-1 (mouse) (UniProt Q62351) (assay: phage ELISA).
recombinant mouse TfR-1 (mouse), sequence (Q62351 89-763 limits assumed): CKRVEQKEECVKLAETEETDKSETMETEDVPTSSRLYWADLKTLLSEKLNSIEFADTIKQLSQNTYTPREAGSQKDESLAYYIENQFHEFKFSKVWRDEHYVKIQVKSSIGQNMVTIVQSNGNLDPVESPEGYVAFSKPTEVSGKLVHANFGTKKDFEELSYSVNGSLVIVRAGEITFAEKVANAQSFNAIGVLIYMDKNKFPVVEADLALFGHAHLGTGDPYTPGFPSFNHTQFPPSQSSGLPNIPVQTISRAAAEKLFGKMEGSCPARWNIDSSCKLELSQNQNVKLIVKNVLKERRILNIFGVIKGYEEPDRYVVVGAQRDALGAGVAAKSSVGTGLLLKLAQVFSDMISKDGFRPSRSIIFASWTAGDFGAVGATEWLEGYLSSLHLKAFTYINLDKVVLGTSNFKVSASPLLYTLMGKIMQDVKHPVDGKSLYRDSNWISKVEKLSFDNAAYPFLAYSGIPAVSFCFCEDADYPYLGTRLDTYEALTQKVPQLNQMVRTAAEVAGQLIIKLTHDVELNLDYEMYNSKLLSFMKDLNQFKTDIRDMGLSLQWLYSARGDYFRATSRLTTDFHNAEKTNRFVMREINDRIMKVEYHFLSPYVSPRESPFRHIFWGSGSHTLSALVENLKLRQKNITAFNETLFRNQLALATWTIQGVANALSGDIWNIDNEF

Binder	A450 [A450]
B1	0.091
B2	0.053
B3	0.046
